In general, Kd refers to the free concentration of one partner at which half of the binding sites on the other are occupied at equilibrium, for simple one-to-one binding. The low end stands for higher affinity, the high end for lower affinity. Broadly, the koff is a measure of how fast the partners let go of each other. Higher therefore signals a short-lived complex. Broadly, the kon is a measure of how fast the partners come together. A low value points to slower complex formation. By EC50 (read off the curve) is commonly meant the concentration needed to bring the measured effect to its halfway point. A high value points to a need for much substance.

We go through seven molecules from patent publication US20250355001A1 (GTINVENT, published 2025).

For test [1], the target named is T1, human tau (hT40) with P301S and G335D of Line 66 mice (human, UniProt P10636 1-758).
T1 construct: transgene product in brain homogenate or plasma; also called L66 human tau
T1 sequence (P10636 other isoform, or with tags, fused parts or gaps P301S G335D P301S G335D limits assumed): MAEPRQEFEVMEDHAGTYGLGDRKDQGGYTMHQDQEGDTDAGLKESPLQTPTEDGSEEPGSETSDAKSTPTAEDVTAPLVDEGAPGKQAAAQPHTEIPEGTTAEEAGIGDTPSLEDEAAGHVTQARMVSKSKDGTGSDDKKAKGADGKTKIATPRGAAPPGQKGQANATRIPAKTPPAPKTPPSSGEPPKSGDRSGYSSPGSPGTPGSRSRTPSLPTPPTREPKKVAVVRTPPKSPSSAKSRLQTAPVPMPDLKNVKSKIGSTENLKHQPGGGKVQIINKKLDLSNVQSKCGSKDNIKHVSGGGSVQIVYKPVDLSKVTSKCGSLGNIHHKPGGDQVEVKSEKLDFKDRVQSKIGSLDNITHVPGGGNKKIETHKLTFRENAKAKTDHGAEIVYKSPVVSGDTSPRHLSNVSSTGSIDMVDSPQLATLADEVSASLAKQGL
Put plainly: Western blot. A general note: A western blot detects proteins with antibodies after separation by electrophoresis.

The target in test [2] is T2, full length human tau protein 2N4R (hT40) (human, UniProt P10636 1-758).
T2 construct: recombinant; also called T441
Put plainly: SPR, hT40 immobilised, mAb analyte. Background: In SPR one partner is held on a chip, and binding of the other changes the refractive index at the surface.
Target sequence in this assay (P10636 other isoform, or with tags, fused parts or gaps limits assumed): as the sequence (P10636 other isoform, or with tags, fused parts or gaps P301S G335D P301S G335D limits assumed) above, with S301P, D335G counted along it

The target in another test is T3, aggregated dGAE (human, UniProt P10636 614-708, limits assumed).
T3 construct: dGAE aggregated in vitro with DTT, 700 rpm, 37 C, 24 h; also called dGAE aggregates; dGAE agg
Put plainly: capture ELISA, mAb coated at 1 µg/ml, aggregates titrated, S1D12 scAb detection.

Test [3] has as its target T2, full length human tau protein 2N4R …. Put plainly: direct ELISA. In outline:
(§1)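 Plates were coated with 1 μg/ml tau protein or truncated fragment, or with 5 μg/ml streptavidin followed by 1 μg/ml biotinylated 13mer peptide, then blocked with 2% MPBS. Anti-tau scAbs were added at a starting concentration and double diluted. Bound scAb was detected with HRP-conjugated anti-human C kappa by absorbance.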
(An ELISA detects its analyte on a solid surface through an enzyme-linked reagent.)

In test [4] the target is T4, dGAE (tau 297-391) (human, UniProt P10636 614-708).
T4 construct: monomer; also called dGAE95
Put plainly: direct ELISA. In outline: as §1

The target in test [5] is T5, dGA (tau 297-390) (human, UniProt P10636 614-707). Put plainly: direct ELISA. In outline: as §1
The target in test [6] is T4, dGAE (tau 297-391). Put plainly: Biacore, for dGAE.
Target sequence in this assay (P10636 614-708 limits assumed): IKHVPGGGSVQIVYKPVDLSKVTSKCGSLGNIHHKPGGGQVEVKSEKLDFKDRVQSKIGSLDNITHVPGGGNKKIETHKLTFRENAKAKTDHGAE
In test [7] the target is T4, dGAE (tau 297-391). Put plainly: SPR, scAb captured, tau analyte. In outline:
(§2)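 scAb captured on flow cell 2 of an antibody-coated chip, flow cell 1 as reference; tau analyte injected 120 s association, 420 s dissociation, glycine pH 2.0 regeneration, in multi-cycle or single-cycle kinetics format. Responses fitted to a 1:1 binding model for kinetics and affinity.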
Target sequence in this assay (P10636 614-708 limits assumed): as above

Test [8] concerns the target T4, dGAE (tau 297-391). Put plainly: sandwich ELISA, dGAE titrated, S1D12 mAb capture.
Target sequence in this assay (P10636 614-708 limits assumed): as above
The target in test [9] is T2, full length human tau protein 2N4R …. Put plainly: ELISA. On the procedure: (§3) A series of binding ELISA was performed using various truncated versions of the tau protein and 13mer peptide libraries spanning the entire hT40 molecule for mapping the epitopes of anti-tau scAbs (Full list of protein antigens used is given in Table 14). In general, ELISA plates were coated with 1 μg/ml hT40 or dGA or dGAE or other truncated versions of the protein and in the case of biotinylated peptides, plates were coated with 5 μg/ml Streptavidin followed by 1 μg/ml biotinylated peptide. The plates were blocked with 2% MPBS and scAb samples added at desired starting concentrations and double diluted across the plate. Binding was detected using anti-Human C Kappa HRP conjugated secondary antibody and the resulting immunoreaction was developed and absorbance values measured as described above.
Target sequence in this assay (P10636 other isoform, or with tags, fused parts or gaps limits assumed): as the sequence (P10636 other isoform, or with tags, fused parts or gaps P301S G335D P301S G335D limits assumed) above, with S301P, D335G counted along it

For test [10], the target named is T4, dGAE (tau 297-391). Put plainly: ELISA. The procedure: as §3
The target of test [11] is T5, dGA (tau 297-390). Put plainly: ELISA. The procedure:
as §3

For test [12], the target named is T6, tau fragment 369-390 (human).
T6 peptide: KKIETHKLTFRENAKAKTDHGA
Put plainly: ELISA. The procedure: as §3

The target of test [13] is T7, tau fragment 369-391 (human).
T7 peptide: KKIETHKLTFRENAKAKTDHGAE
Put plainly: ELISA. The procedure:
as §3

The target of test [14] is T2, full length human tau protein 2N4R …. Put plainly: SPR, summary table. In outline:
as §2
Target sequence in this assay (P10636 other isoform, or with tags, fused parts or gaps limits assumed): as the sequence (P10636 other isoform, or with tags, fused parts or gaps P301S G335D P301S G335D limits assumed) above, with S301P, D335G counted along it

Test [15] has the same target. Put plainly: hT40 ELISA.
Target sequence in this assay (P10636 other isoform, or with tags, fused parts or gaps limits assumed): as the sequence (P10636 other isoform, or with tags, fused parts or gaps P301S G335D P301S G335D limits assumed) above, with S301P, D335G counted along it
For test [16] the target is unchanged. Put plainly: hT40 ELISA. The source holds these as a separate data set.
Target sequence in this assay (P10636 other isoform, or with tags, fused parts or gaps limits assumed): as the sequence (P10636 other isoform, or with tags, fused parts or gaps P301S G335D P301S G335D limits assumed) above, with S301P, D335G counted along it
The next test concerns the target T8, tau fragment 186-350 (human, UniProt P10636 503-667).
T8 construct: also called m186-350
Put plainly: direct ELISA.

Test [17] concerns the target T9, tau fragment 266-359 (R1-3) (human, UniProt P10636 583-676). Put plainly: direct ELISA.
Test [18] deals with T4, dGAE (tau 297-391). Put plainly: direct ELISA. The source holds these as a separate data set.
Test [19] addresses tau fragment 337-368 (human). Put plainly: direct ELISA.
The target in test [20] is T2, full length human tau protein 2N4R …. Put plainly: SPR, scAb captured, tau analyte. In outline: as §2
Target sequence in this assay (P10636 other isoform, or with tags, fused parts or gaps limits assumed): as the sequence (P10636 other isoform, or with tags, fused parts or gaps P301S G335D P301S G335D limits assumed) above, with S301P, D335G counted along it
In test [21] the target is T5, dGA (tau 297-390). Put plainly: SPR, scAb captured, tau analyte. In outline:
as §2
Target sequence in this assay (P10636 614-707 limits assumed): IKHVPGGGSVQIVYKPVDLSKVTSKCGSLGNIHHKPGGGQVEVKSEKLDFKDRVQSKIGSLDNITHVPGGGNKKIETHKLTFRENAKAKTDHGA

The next test addresses T10, tau peptide 341-353 (human).
T10 peptide: Biotin-SEKLDFKDRVQSK
Put plainly: ELISA on biotinylated peptide over streptavidin. The procedure: as §3

The target of a further test is T11, tau peptide 306-323.
T11 peptide: Biotin-VQIVYKPVDLSKVTSKCG
Put plainly: peptide ELISA.

The next test has as its target T12, tau peptide 313-336 (human).
T12 peptide: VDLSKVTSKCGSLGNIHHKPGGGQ
Put plainly: peptide ELISA.

In test [22] the target is tau fragment 337-368 (human). Put plainly: direct ELISA. The source holds these as a separate data set.
Sequence of tau fragment 337-368 (human) (peptide, as listed by the source): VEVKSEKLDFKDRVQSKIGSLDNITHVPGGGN
The target of test [23] is T9, tau fragment 266-359 (R1-3). Put plainly: direct ELISA. The source holds these as a separate data set.
Test [24] has as its target T7, tau fragment 369-391. Put plainly: direct ELISA.
The target of test [25] is T6, tau fragment 369-390. Put plainly: direct ELISA.

Like-named read-outs stand apart in the source and are kept apart here. Where no end group is shown, it is not given here. The star is where a group is joined. Biotin = O=C1N[C@H]2[C@H](CS[C@H]2CCCCC(=O)*)N1

T9 sequence (P10636 583-676): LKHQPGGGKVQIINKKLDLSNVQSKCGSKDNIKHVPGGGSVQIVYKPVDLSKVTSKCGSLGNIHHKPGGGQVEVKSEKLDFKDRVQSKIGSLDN
T8 sequence (P10636 503-667): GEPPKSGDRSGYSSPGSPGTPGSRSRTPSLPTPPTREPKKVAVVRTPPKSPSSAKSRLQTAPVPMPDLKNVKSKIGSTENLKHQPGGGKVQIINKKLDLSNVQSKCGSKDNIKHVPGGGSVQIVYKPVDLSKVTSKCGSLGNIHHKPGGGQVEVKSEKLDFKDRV

B1: S1G2 mAb (antibody, mouse IgG2a, V domains shown)
VH: QVQLQESGPSLVKPSQTLSLTCTVSGFSLTSNSVGWVRQAPGKAPEWVAGIDTDGEEGYNPALNSRLSITRDTSKSQVSLSLSSVTSEDTAVYYCGRSYRADGLAYGYVQAIDYWGPGLLVTVSS
VL: QAVVTQPSSVSGSLGQRVSITCSGSFIGISSVGWFQQLPGSGLRTIIVASDGRPSGVPDRFSMSKSGNTATLTISSLQAEDEADYFCGSSDRTPYTGVFGSGTRLTVLG
notes: sheep-mouse IgG2a chimeric mAb; also called S1G2 antibody
B1: the binding result in test [1] is listed as “binds”. In [2], this molecule displayed a Kd of 0.14 nM, an off-rate constant (koff) of 4.75e-05 s⁻¹ and a kon of 340000 M⁻¹ s⁻¹. Besides, the “EC50 (read off the curve)” value with aggregated dGAE was ~30 nM.

B2: E2B7 scAb (scFv, not shown: small tags and cut ends)
scFv: QVQLQESGPSLVKPSQTLSLTCTVSGFSLTSWGVAWVRQAPGKALEWLGTMRSGGGTEYNPALKSRLSITRDTSKSQVSLSLSSVTTEDMAMYYCARGYLSGIHYAWGRGLLVSVSSEGKSSGASGESKVDDQAVLTQLSSVSGSLGQRVSITCSGSSSNVGDGDYVGWFQQLPGSAPKLLIYSARNRASGVPDRFSGSRSGNTATLTITSLQAEDEADYYCASIDTSRSHIFGSGTRLTVLG
notes: scAb
Take B2: the binding result (in [3]; with dGA (tau 297-390) [5]) was “no binding (tested: 25 ug/ml)” throughout. Moreover, the “EC50 (read off the curve)” value with dGAE (tau 297-391) [4] was ~0.1 µg/mL.

B3: E2E8 scAb (scFv, not shown: small tags and cut ends)
scFv: QVQLQESGPSLVKPSQTLSLTCTVSGFSLTDRGVAWVRQAPGKALEWVGTMRSGGTIDYNPALKSRLSITRDTSKSQVFLSLSSVTTEDMAMYYCARGYLSGDRYAWGRGLLVTVSSEGKSSGASGESKVDDQAVLTQPSSVSKSLGQSVSIACSGSRSDIGYGNYVSWFQQIPGSAPKLLIYDTNTRASGVPDRFSGARSGNTATLTINSLQAEDEADYYCANIDSSRSHLFGSGTRLTVLG
notes: scAb
As for B3, the Kd with dGAE (tau 297-391) [6] was determined as 0.4 nM; with dGAE (tau 297-391) [7] it was 0.401 nM. Besides, the binding result (in test [3]; with dGA (tau 297-390) [5]) was “no binding (tested: 25 ug/ml)” in each case. In the test with dGAE (tau 297-391) [7], this molecule showed a dissociation rate constant (koff) of 0.000191 s⁻¹. Further, the kon with dGAE (tau 297-391) [7] came out at 477000 M⁻¹ s⁻¹. In addition, the “EC50 (read off the curve)” value with dGAE (tau 297-391) [8] is ~0.7 nM.

B4: MD9/MoD9 scAb (scFv, not shown: small tags and cut ends)
scFv: QVRLQESGPSLVKSSQTLSLTCTVSGFSLTRESIAWVRQAPGKVPEWLGGVGIDGTSYYSPALKSRLSITRDTSKSQASLSLSSVATEDTAMYYCARNYIDFEYWGPGLLVTVSSEGKSSGASGESKVDDQAVLTQLSSVSGSLGQRISITCSGSSSNVGIYDVSWFQQLPGSGLRTVIYGTNNRPSGVPDRFSGSRSGNTATLTISSLQSEDEAIYYCAAGDSSTIAVFGSGTRLTVLG
notes: scAb
For the molecule B4, the binding result (in [9]; in the test with dGAE (tau 297-391) [10]; in the test with dGA (tau 297-390) [11]; in the test with tau fragment 369-390 [12]; in the test with tau fragment 369-391 [13]) was “binds” each time.

B5: S1D12 scAb (scFv, not shown: small tags and cut ends)
scFv: QVQLQESGPSLVKPSQTLSLTCTVSGFSLNNNAVGWVRQAPGKVPESLVGCSSDGTCYYNSALKSRLDITRDTSKNQISLSLSSVTTDDAAVYYCTRGHYSIYGYDYLGTIDYWGPGLLVTVSSEGKSSGASGESKVDDQAVLTQPSSVSGSLGQRVSITCSGSSSNVGGGNSVGWYQHLPGSGLKTIIYDTNSRPSGVPDRFSGSRSGNTATLTINSLQAEDEGDYYCVTGDSTTHDDLVGSGTRLTVLG
notes: scAb
For the molecule B5, the Kd in [14] worked out at 0.122 nM; in [20], 0.122 nM; with dGA (tau 297-390) [21], 0.344 nM. The “EC50 (read off the curve)” value in [15] was ~0.005 µg/mL; in test [16] it was ~1 µg/mL; with tau fragment 186-350, ~2 µg/mL; in [17], ~0.5 µg/mL; with dGAE (tau 297-391) [18] it was ~3 µg/mL; with tau fragment 337-368 [19] it was ~4 µg/mL. In the test with tau peptide 341-353, the “EC50 (read off the curve)” value was ~0.8 µg/mL. The koff in test [20] came out at 0.00015 s⁻¹; with dGA (tau 297-390) [21], 0.000418 s⁻¹. For the same molecule, the kon in test [20] was 1.25e+06 M⁻¹ s⁻¹; with dGA (tau 297-390) [21], 1.21e+06 M⁻¹ s⁻¹.

B6: E1B8 scAb (scFv, not shown: small tags and cut ends)
scFv: QVQLQESGPSLVKPSQTLSLTCTVSGFSLTNYPVGWVRQAPGKALEWIGNIENDGSANYASALKSRLSITRDTSKNQVSLSLSSATTEDTAVYYCGREFGGSDGYTYFVDIDYWGPGLLVTVSSEGKSSGASGESKVDDQAVLTQPSSVSKSLGQSVSITCSGSSSNVGYGNYVSWFQQVPGSAPKILIYGATSRASGVPDRFSGSRSGNTATLTITSLQAEDEADYYCASYDGSSSGVFGSGTRLTVLG
notes: scAb
For B6, the binding result in the test with tau peptide 306-323 is listed as “no binding (tested: 25 ug/ml)”. Further, the “EC50 (read off the curve)” value with tau peptide 313-336 is ~2 µg/mL. In the test with dGA (tau 297-390) [21], this molecule gave a Kd of 17.7 nM, a koff of 0.00242 s⁻¹ and a kon of 137000 M⁻¹ s⁻¹.

B7: NS2A1 scAb (scFv, not shown: small tags and cut ends)
scFv: QVQLQESGPSLVKPSQTLSLTCTVSGFSLSTNSVGWVRQAPGKAPEWVAGIDTDGEEGFNPVLKSRLSITRDTSKSQVSLSLSNVTSEDTAVYYCGRSYRTDGLAYGYVQAIDYWGPGLLVTISSEGKSSGASGESKVDDQSVLTQPSSVSGSPGQTVSITCSGSYIGSSGVGWFQQLPGSGLRTIIVASDGRPSGVPDGFSMSKSGNTATLTISSLQAEDEADYFCGSSDRTQYTGLFGSGTRLTVLG
notes: scAb
For B7, the Kd turned out to be 2.9 nM in [14], 2.9 nM in [20] and 5.4 nM in the test with dGA (tau 297-390) [21]. Besides, the binding result (with tau fragment 337-368 [22]; in [23]; with tau fragment 369-391 [24]; with tau fragment 369-390 [25]) was “no binding (tested: 25 ug/ml)” throughout. Moreover, the koff in test [20] worked out at 0.000739 s⁻¹; in the test with dGA (tau 297-390) [21], 0.00102 s⁻¹. Also, the kon in test [20] turned out to be 252000 M⁻¹ s⁻¹; with dGA (tau 297-390) [21] it was 188000 M⁻¹ s⁻¹.
